Data from paper PMC12153270.

Test system: MBP-ComGC (soluble globular head) (Streptococcus sanguinis 2908?)
Assay: EMSA
Details: 2.5 mM Mg2+; 25 mM Tris-HCl pH 8, 2.5 mM MgCl2, 50 mM NaCl, room temperature 30 min, 120 ng pUC19 in 10 uL; 0.8% agarose in TAE

For pUC19 plasmid, the binding was greater than 10 µM.
